Switch fluorescence ratio data for 79 sequences are collected here from the supplement of paper PMC10126150.

The subject of the data set is ATP. Kind of data set: switch fluorescence ratio, 500 uM ATP over buffer (Cy3 cluster intensity, sum of 5 cycles each) (fold (ratio)); higher = stronger signal-on switching upon ATP binding; sequences stand for … in TCGTCGGCAGCGTCAGATGTGTATAAGAGACAGTTTTTTTTTTTTTTTTTTTTTTTTT…TC. The settings on record: aptamer strand: ATP DNA aptamer (quencher-CACCTGGGGGAGTATTGCGGAGGAAGG + anchor), 100 nM annealed; ATP concentration: 500 uM. The method in brief: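 Between each of five buffer/ATP cycles, the flow-cell was stripped with NaOH and re-annealed. Each cycle imaged Cy3-labelled switching-strand clusters, annealed to 100 nM quencher-labelled ATP aptamer on a modified Illumina MiSeq flow-cell, first in selection buffer and then after 15 min with 500 uM ATP at 22 °C. The fluorescence ratio is summed target-cycle over summed buffer-cycle Cy3 intensity per cluster, averaged per switch-domain sequence, with clusters outside 100-1000 RFU excluded.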

± gives the standard deviation of the averaged measurements.
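Note: ATP exposure 15 min at 22 °C before imaging.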

Regarding CCCTATTTTT, the switch fluorescence ratio turned out to be 1.01 ± 0.035.
In the case of CCCTCTATTC, the switch fluorescence ratio turned out to be 1.06 ± 0.03.
The result for CCCTGAGGGT reads 1.01 ± 0.023; that for CCCTTATGGT, 0.9932 ± 0.0086.
The same measure for CCCTTGGATA: 0.993 ± 0.021; for CCCTTGTCCG: 1.05 ± 0.037.
The result for CCCTTTTGGG reads 0.997 ± 0.035; that for CCGAACGTCG, 1.88 ± 0.27; that for CCGAACTGAT, 1.13 ± 0.027.
Take CCGAAGGATT: the switch fluorescence ratio is 1.022 ± 0.0044.
CCGACGGAGG: the switch fluorescence ratio came to 1.99 ± 1.2.
The same measure for CCGAGAGAGC: 1.13 ± 0.04; for CCGAGAGGGC: 1.15 ± 0.092; for CCGAGGAAGC: 1.34 ± 0.14.
The same measure for CCGAGTTAAG: 1.08 ± 0.012; for CCGATGGTCT: 1.25 ± 0.072.
With CCGATGTGGT, the switch fluorescence ratio is 1.57 ± 0.039.
Regarding CCGATGTGTC, the switch fluorescence ratio stood at 2.42 ± 0.52.
The same measure for CCGCCCGGAT: 1.14 ± 0.018; for CCGCGAGCTA: 4.52 ± 1.1; for CCGCGGCTTG: 1.12 ± 0.053.
As for CCGCTGGATG, the switch fluorescence ratio was 1.202 ± 0.011.
The result for CCGCTGGGGG reads 1.177 ± 0.0036; that for CCGCTGGTGT, 3.59 ± 0.29; that for CCGCTTGAGA, 1.08 ± 0.025.
The same measure for CCGGACACGA: 1.39 ± 0.042; for CCGGACAGGT: 1.13 ± 0.023.
With CCGGAGAGGG, the switch fluorescence ratio worked out at 1.7 ± 0.61.
For CCGGAGATCC, the switch fluorescence ratio amounted to 2.06 ± 0.22.
The result for CCGGATATGT reads 1.08 ± 0.046; that for CCGGATGGGT, 1.012 ± 0.0037.
The same measure for CCGGATGGTG: 1.017 ± 0.0044.
The same measure for CCGGCGGATT: 1.08 ± 0.056; for CCGGGAAAGC: 1.18 ± 0.25; for CCGGGAGGGG: 1.11 ± 0.12.
Turning to CCGGGAGTCG, the switch fluorescence ratio is 1.06 ± 0.017.
On to CCGGGCAAGA, for which the switch fluorescence ratio amounted to 5.5 ± 1.4.
The result for CCGGGCCGAA reads 1.05 ± 0.017; that for CCGGGGGAAT, 1.13 ± 0.16; that for CCGGGGGTTT, 1.036 ± 0.0054.
The same measure for CCGGGGTATT: 1.07 ± 0.033.
The same measure for CCGGGGTGTA: 1.32 ± 0.36; for CCGGGGTTAG: 1.38 ± 0.42; for CCGGGGTTTT: 1.11 ± 0.22.
As to CCGGGTATGG, the switch fluorescence ratio worked out at 1.02 ± 0.016.
The same measure for CCGGGTGGGG: 1.04 ± 0.03; for CCGGTAGGCC: 0.978 ± 0.033; for CCGGTGGCTG: 1 ± 0.033.
Turning to CCGGTTGTGA, the switch fluorescence ratio was determined as 1.177 ± 0.0083.
The result for CCGGTTTCGT reads 1.26 ± 0.26.
Turning to CCGTAAGAAT, the switch fluorescence ratio worked out at 1.37 ± 0.055.
The same measure for CCGTACGGGG: 1.029 ± 0.0055.
The result for CCGTACGTCA reads 1.77 ± 0.041.
CCGTATATGT: the switch fluorescence ratio was found to be 1.19 ± 0.029.
The result for CCGTCAGAGT reads 1.09 ± 0.014; that for CCGTCAGGTT, 1.012 ± 0.005; that for CCGTCGCTTA, 2.36 ± 0.37.
The same measure for CCGTGAGAAT: 1.07 ± 0.018.
The result for CCGTGCCGTT reads 0.948 ± 0.024; that for CCGTGCTTTT, 1.08 ± 0.047.
Take CCGTGGGGAT: the switch fluorescence ratio is 1.24 ± 0.26.
As to CCGTTATTAG, the switch fluorescence ratio came out at 1.3518 ± 0.0007.
The result for CCGTTCAGGG reads 1.001 ± 0.0045.
Regarding CCGTTGAAAT, the switch fluorescence ratio came to 1.22 ± 0.011.
The same measure for CCGTTGAGTG: 0.995 ± 0.024.
The result for CCGTTGATGT reads 1.014 ± 0.002.
The same measure for CCGTTGGATT: 0.983 ± 0.01.
On to CCGTTGGTTT, for which the switch fluorescence ratio amounted to 0.9937 ± 0.0088.
The same measure for CCGTTGTCCA: 1.02 ± 0.032; for CCGTTTGGTT: 0.995 ± 0.064.
The result for CCTAAAAGTT reads 1.01 ± 0.05; that for CCTAAAGTTT, 0.983 ± 0.014.
The same measure for CCTAACACGA: 1.11 ± 0.027; for CCTAATCAAC: 1.13 ± 0.034; for CCTAATTGAA: 0.9728 ± 0.0041.
As to CCTACAGTGA, the switch fluorescence ratio stood at 1.752 ± 0.015.
The same measure for CCTACTAGAT: 1.142 ± 0.007; for CCTAGCCCTT: 1.05 ± 0.054; for CCTAGGTAAA: 0.993 ± 0.034.
